One block for each substance: values may come before it.
What was measured:
[1] = molecular target: mCherry-(GGS)6-Rac1(1-188)-His8 (UniProt P63000); assay: membrane recruitment assay on supported lipid bilayers (TIRF microscopy); conditions: mCherry-Rac1 Q61L/P29S-His8 anchored on bilayers containing 2% Ni2+-NTA-DGS lipid; parent: est. 0.72; read off a plot
[2] = molecular target: EGFP-tagged WRC, wild type (Sra1, Nap1, MBP-EGFP-HSPC300, MBP-Abi2(1-158), MBP-WAVE1(1-230)), Q7L576;Q9Y2A7;Q8WUW1;Q9NYB9;Q92558; assay: as above; conditions: WT EGFP-WRC; parent value is Rac1 WT loaded with GMPPNP (Rac1 WT GDP bar est. 0.045); parent: est. 0.23; read off a plot
[3] = molecular target: GST-Rac1(1-188) (Q61L/P29S) (UniProt P63000); assay: pull-down; equilibrium pull-down (EPD): 0.1 μM ΔWRC230, 0.01 to 140 μM GST-Rac1(1-188) (Q61L/P29S), Glutathione Sepharose; 20 mM HEPES pH 7, 100 mM NaCl, 5% glycerol, 2 mM MgCl2, 5 mM β-mercaptoethanol, 0.05% Triton X100; 4°C, 30 min; unbound WRC in the supernatant quantified by SDS-PAGE; fits in DynaFit
[4] = molecular target: GST-Rac1(1-188) (Q61L/P29S) (UniProt P63000); assay: other; GST-dimer model, KD,1; conditions: complex; chains chain;chain;chain;chain;chain
[5] = molecular target: GST-Rac1(1-188) (Q61L/P29S) (UniProt P63000); assay: other; GST-dimer model, KD,2 (second WRC); conditions: complex; chains chain;chain;chain;chain;chain

Substance: EGFP-tagged WRC, wild type (Sra1, Nap1, MBP-EGFP-HSPC300, MBP-Abi2(1-158), MBP-WAVE1(1-230)) (from UniProt Q7L576;Q9Y2A7;Q8WUW1;Q9NYB9;Q92558) Y967A
- response [1]: 0.12

Substance: mCherry-Rac1-His8 wild type (GMPPNP) Q61L; P29S
- response [2]: 0.72

Substance: ΔWRC230 with Sra1 Y967A (Sra1, Nap1, HSPC300, MBP-Abi2(1-158), MBP-WAVE1(1-230)), Q7L576 1-1253; Q9Y2A7 1-1128; Q8WUW1 1-75; Q9NYB9 1-158; Q92558 1-230
- KD,A (A Site, first WRC, GST-dimer model) [3]: 11.5 µM
- KD,A (A Site, single-site model) [3]: 10.8 µM
- KD,A (A Site, two-site model) [3]: 9.6 µM
- KD,A’ (A Site of the second WRC, GST-dimer model) [3]: 0.033 µM

Substance: ΔWRC230, wild type (Sra1, Nap1, HSPC300, MBP-Abi2(1-158), MBP-WAVE1(1-230)), Q7L576 1-1253; Q9Y2A7 1-1128; Q8WUW1 1-75; Q9NYB9 1-158; Q92558 1-230
- KD,A(D) (A Site of the D Site-bound WRC, sequential two-site model) [3]: 0.262 µM
- KD,D (D Site, sequential two-site model) [3]: 0.169 µM
- KD,D (D Site, single-site model) [3]: 0.106 µM
- Kd [4]: 0.067 µM

Further lines, results first:

- response [1]: 0.36
Substance: EGFP-tagged WRC, wild type (Sra1, Nap1, MBP-EGFP-HSPC300, MBP-Abi2(1-158), MBP-WAVE1(1-230)) (from UniProt Q7L576;Q9Y2A7;Q8WUW1;Q9NYB9;Q92558) C179R

- response [1]: 0.8
Substance: EGFP-tagged WRC, wild type (Sra1, Nap1, MBP-EGFP-HSPC300, MBP-Abi2(1-158), MBP-WAVE1(1-230)) (from UniProt Q7L576;Q9Y2A7;Q8WUW1;Q9NYB9;Q92558) S969F

- Kd [3]: 0.265 µM
- Kd [4]: 0.201 µM
- Kd [5]: 0.144 µM
Substance: ΔWRC230 with Sra1 C179R (Sra1, Nap1, HSPC300, MBP-Abi2(1-158), MBP-WAVE1(1-230)), Q7L576 1-1253; Q9Y2A7 1-1128; Q8WUW1 1-75; Q9NYB9 1-158; Q92558 1-230
